Measurements reported in patent US20090271896A1 (SAMUEL ROBERTS NOBLE FOUNDATION, published 2009).

Experiments:
[1] = target: T1, AtVIP2 (Arabidopsis VirE2-Interacting Protein 2), largest cDNA clone in pGAD424 (Arabidopsis thaliana, UniProt Q9FPW4 59-614); assay: yeast two-hybrid, HIS3 and beta-galactosidase reporters
T1 construct: also called At5g59710; GenBank AF295433
T1 sequence: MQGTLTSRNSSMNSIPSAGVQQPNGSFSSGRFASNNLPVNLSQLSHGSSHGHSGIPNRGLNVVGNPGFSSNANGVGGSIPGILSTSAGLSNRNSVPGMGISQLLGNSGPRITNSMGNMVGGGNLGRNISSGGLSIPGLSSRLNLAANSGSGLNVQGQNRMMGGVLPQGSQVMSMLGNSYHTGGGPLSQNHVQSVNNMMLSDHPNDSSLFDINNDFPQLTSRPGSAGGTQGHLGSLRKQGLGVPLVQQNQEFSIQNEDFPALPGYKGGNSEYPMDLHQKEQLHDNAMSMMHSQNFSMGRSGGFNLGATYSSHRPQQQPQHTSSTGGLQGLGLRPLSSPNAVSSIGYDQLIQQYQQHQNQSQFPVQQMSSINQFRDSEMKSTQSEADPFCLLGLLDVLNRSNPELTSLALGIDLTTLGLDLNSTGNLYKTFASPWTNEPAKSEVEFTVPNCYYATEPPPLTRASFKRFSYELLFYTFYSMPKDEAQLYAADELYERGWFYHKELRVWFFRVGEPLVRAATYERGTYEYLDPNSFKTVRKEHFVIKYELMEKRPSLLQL

[2] = target: T2, NbVIP2 (N. benthamiana VIP2) in pGAD424 (Nicotiana benthamiana, UniProt Q52JK6 1-603); assay: yeast two-hybrid, growth on triple dropout (-Leu/-Trp/-His) plates
T2 construct: also called pGAD-NbVIP2; GenBank DQ000202
T2 sequence: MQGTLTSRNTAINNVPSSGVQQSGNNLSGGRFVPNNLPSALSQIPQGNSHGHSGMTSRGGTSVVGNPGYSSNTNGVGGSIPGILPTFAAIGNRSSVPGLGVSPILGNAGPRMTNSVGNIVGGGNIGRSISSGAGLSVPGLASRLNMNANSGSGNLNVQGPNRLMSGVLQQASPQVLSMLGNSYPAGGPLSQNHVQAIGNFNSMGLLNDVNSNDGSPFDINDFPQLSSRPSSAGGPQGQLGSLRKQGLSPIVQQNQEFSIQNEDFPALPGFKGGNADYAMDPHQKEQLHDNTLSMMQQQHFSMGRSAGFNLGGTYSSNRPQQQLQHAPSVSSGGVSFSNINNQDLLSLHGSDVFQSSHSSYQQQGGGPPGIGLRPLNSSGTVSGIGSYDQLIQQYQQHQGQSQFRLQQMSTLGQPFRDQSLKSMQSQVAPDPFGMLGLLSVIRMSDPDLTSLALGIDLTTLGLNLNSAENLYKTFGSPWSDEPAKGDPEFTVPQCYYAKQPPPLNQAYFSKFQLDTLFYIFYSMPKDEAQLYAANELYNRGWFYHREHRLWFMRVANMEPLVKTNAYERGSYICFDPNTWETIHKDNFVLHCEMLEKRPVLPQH

B1: human lamin C (other)
chain: SEEVVSREVSGIKAAYEAELGDARKTLDSVAKERARLQLELSKVREEFKELKARNTKKEGDLIAAQARLKDLEALLNSKEAALSTALSEKRTLEGELHDLRGQVAKLEAALGEAKKQLQDEMLRRVDAENRLQTMKEELDFQKNIYSEELRETKRRHETRLVEID
notes: also called pSTT-LaminC
[1]
  binding result: no binding
[2]
  binding result: no binding
